To fix the notation:
B1: VII-55-A (peptide)
chain: Ac-RYY[Ahx]WR-NH2
SMILES: CC(=O)N[C@@H](CCCNC(=N)N)C(=O)N[C@@H](Cc1ccc(O)cc1)C(=O)N[C@@H](Cc1ccc(O)cc1)C(=O)NCCCCCC(=O)N[C@@H](Cc1c[nH]c2ccccc12)C(=O)N[C@@H](CCCNC(=N)N)C(N)=O
B2: VII-51-A (peptide)
chain: Ac-RYYR[Trp(5-CN)]R-NH2
SMILES: CC(=O)N[C@@H](CCCNC(=N)N)C(=O)N[C@@H](Cc1ccc(O)cc1)C(=O)N[C@@H](Cc1ccc(O)cc1)C(=O)N[C@@H](CCCNC(=N)N)C(=O)N[C@@H](Cc1c[nH]c2ccc(C#N)cc12)C(=O)N[C@@H](CCCNC(=N)N)C(N)=O
B3: VII-4-B (peptide)
chain: [Ac6c]RYYRWR-NH2
modifications: N-terminus assumed
SMILES: N=C(N)NCCC[C@H](NC(=O)[C@H](Cc1c[nH]c2ccccc12)NC(=O)[C@H](CCCNC(=N)N)NC(=O)[C@H](Cc1ccc(O)cc1)NC(=O)[C@H](Cc1ccc(O)cc1)NC(=O)[C@H](CCCNC(=N)N)NC(=O)C1(N)CCCCC1)C(N)=O
B4: VII-57-C (peptide)
chain: Ac-RYYRW[Ahx]-NH2
SMILES: CC(=O)N[C@@H](CCCNC(=N)N)C(=O)N[C@@H](Cc1ccc(O)cc1)C(=O)N[C@@H](Cc1ccc(O)cc1)C(=O)N[C@@H](CCCNC(=N)N)C(=O)N[C@@H](Cc1c[nH]c2ccccc12)C(=O)NCCCCCC(N)=O
B5: IV-21-C (peptide)
chain: Propionyl-AYYRWR-NH2
SMILES: CCC(=O)N[C@@H](C)C(=O)N[C@@H](Cc1ccc(O)cc1)C(=O)N[C@@H](Cc1ccc(O)cc1)C(=O)N[C@@H](CCCNC(=N)N)C(=O)N[C@@H](Cc1c[nH]c2ccccc12)C(=O)N[C@@H](CCCNC(=N)N)C(N)=O
B6: IV-29-B (peptide)
chain: Propionyl-RYYRAR-NH2
SMILES: CCC(=O)N[C@@H](CCCNC(=N)N)C(=O)N[C@@H](Cc1ccc(O)cc1)C(=O)N[C@@H](Cc1ccc(O)cc1)C(=O)N[C@@H](CCCNC(=N)N)C(=O)N[C@@H](C)C(=O)N[C@@H](CCCNC(=N)N)C(N)=O
B7: IV-39-B (peptide)
chain: Hexanoyl-RYYAWR-NH2
SMILES: CCCCCC(=O)N[C@@H](CCCNC(=N)N)C(=O)N[C@@H](Cc1ccc(O)cc1)C(=O)N[C@@H](Cc1ccc(O)cc1)C(=O)N[C@@H](C)C(=O)N[C@@H](Cc1c[nH]c2ccccc12)C(=O)N[C@@H](CCCNC(=N)N)C(N)=O
B8: IV-23-B (peptide)
chain: Propionyl-RAYRWR-NH2
SMILES: CCC(=O)N[C@@H](CCCNC(=N)N)C(=O)N[C@@H](C)C(=O)N[C@@H](Cc1ccc(O)cc1)C(=O)N[C@@H](CCCNC(=N)N)C(=O)N[C@@H](Cc1c[nH]c2ccccc12)C(=O)N[C@@H](CCCNC(=N)N)C(N)=O
B9: IV-41-B (peptide)
chain: Hexanoyl-RYYRAR-NH2
SMILES: CCCCCC(=O)N[C@@H](CCCNC(=N)N)C(=O)N[C@@H](Cc1ccc(O)cc1)C(=O)N[C@@H](Cc1ccc(O)cc1)C(=O)N[C@@H](CCCNC(=N)N)C(=O)N[C@@H](C)C(=O)N[C@@H](CCCNC(=N)N)C(N)=O
B10: IV-27-B (peptide)
chain: Propionyl-RYYAWR-NH2
SMILES: CCC(=O)N[C@@H](CCCNC(=N)N)C(=O)N[C@@H](Cc1ccc(O)cc1)C(=O)N[C@@H](Cc1ccc(O)cc1)C(=O)N[C@@H](C)C(=O)N[C@@H](Cc1c[nH]c2ccccc12)C(=O)N[C@@H](CCCNC(=N)N)C(N)=O
B11: IV-33-B (peptide)
chain: Hexanoyl-AYYRWR-NH2
SMILES: CCCCCC(=O)N[C@@H](C)C(=O)N[C@@H](Cc1ccc(O)cc1)C(=O)N[C@@H](Cc1ccc(O)cc1)C(=O)N[C@@H](CCCNC(=N)N)C(=O)N[C@@H](Cc1c[nH]c2ccccc12)C(=O)N[C@@H](CCCNC(=N)N)C(N)=O
B12: IV-35-B (peptide)
chain: Hexanoyl-RAYRWR-NH2
SMILES: CCCCCC(=O)N[C@@H](CCCNC(=N)N)C(=O)N[C@@H](C)C(=O)N[C@@H](Cc1ccc(O)cc1)C(=O)N[C@@H](CCCNC(=N)N)C(=O)N[C@@H](Cc1c[nH]c2ccccc12)C(=O)N[C@@H](CCCNC(=N)N)C(N)=O
B13: IV-12-B (peptide)
chain: Ac-R[dY]Y[dR]WR-NH2
SMILES: CC(=O)N[C@@H](CCCNC(=N)N)C(=O)N[C@H](Cc1ccc(O)cc1)C(=O)N[C@@H](Cc1ccc(O)cc1)C(=O)N[C@H](CCCNC(=N)N)C(=O)N[C@@H](Cc1c[nH]c2ccccc12)C(=O)N[C@@H](CCCNC(=N)N)C(N)=O

Non-standard residues stand in square brackets, D forms with d. No end group written: not given here. *: point of attachment. Trp(5-CN) = N#Cc1ccc2[nH]cc(C[C@H](N)C(=O)O)c2c1; Ac6c = NC1(C(=O)O)CCCCC1; Hexanoyl = CCCCCC(=O)*; Propionyl = CCC(=O)*; Ahx = NCCCCCC(=O)O

In one assay the target is ORL1 (UniProt P41146). Briefly: competition.
ORL1, sequence (P41146 whole entry): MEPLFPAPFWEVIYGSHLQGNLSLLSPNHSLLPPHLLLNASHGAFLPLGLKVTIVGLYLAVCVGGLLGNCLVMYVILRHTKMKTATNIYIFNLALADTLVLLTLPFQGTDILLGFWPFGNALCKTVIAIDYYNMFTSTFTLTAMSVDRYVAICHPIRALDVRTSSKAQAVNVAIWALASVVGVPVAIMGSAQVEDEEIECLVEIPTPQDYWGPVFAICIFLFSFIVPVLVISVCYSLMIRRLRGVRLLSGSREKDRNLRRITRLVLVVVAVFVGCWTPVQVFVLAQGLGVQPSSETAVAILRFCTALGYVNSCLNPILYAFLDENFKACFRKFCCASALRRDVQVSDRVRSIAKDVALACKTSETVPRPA
Broadly, the Ki is a measure of affinity in units of concentration, obtained from inhibition or displacement. Read a high Ki as lower affinity. In the case of B1, the affinity corresponds to a Ki of 0.039 µM.
As for B2, the Ki worked out at 0.0003 µM.
As to B3, the affinity, expressed as Ki, was 0.00925 µM.
With B4, the Ki was 0.0419 µM. Compared with the last molecule, the Ki is about 4.5-fold higher.

A further assay has as its target ORL1 (UniProt P41146). Briefly: competition. This is another data set of the same source.
Usually IC50 stands for the point on the concentration scale where inhibition reaches its midpoint. In turn, B5 came in with a 50% inhibitory concentration (IC50) of 1.78 µM.
B6: the IC50 worked out at 1.89 µM.
On to B7, for which the IC50 was determined as 1 µM.
The molecule B8 returned an IC50 of 0.182 µM.
As to B9, the half-inhibitory concentration (IC50) is 0.71 µM.
Molecule B10 had an IC50 of 0.4 µM.
On the same count and under the same terms, then B11, with 1.02 µM; and B12, with 0.113 µM.

The next assay concerns the target ORL1 (UniProt P41146). Briefly: competition, [3H]nociceptin.
B13: the IC50 is 1.15 µM.

Source of the values: US20060194739 (published 2006).
